We go through 3 molecules from article PMC3539977, “Plant Coilin: Structural Characteristics and RNA-Binding Properties” (PLoS ONE, 2013).

Data set [1] has as its system NOD (Arabidopsis thaliana). The experiment in a line: EMSA. The settings on record: apparent; EMSA: 20 mM Tris-HCl pH 7.5, 1 mM DTT, 3 mM MgCl2, 50 mM NaCl, on ice 15 min; 0.1 ug RNA, 2% Tris-acetate agarose gel. Background: Mobility shift assays separate free from complexed probe on a gel.
For data set [2], the system named is IDD-212-350 (Arabidopsis thaliana). Put plainly: EMSA. The note with it: apparent; EMSA: 20 mM Tris-HCl pH 7.5, 1 mM DTT, 3 mM MgCl2, 50 mM NaCl, on ice 15 min; 0.1 ug RNA, 2% Tris-acetate agarose gel.
The test system of data set [3] is IDD (Arabidopsis thaliana). Put plainly: EMSA. The settings on record: apparent; EMSA: 20 mM Tris-HCl pH 7.5, 1 mM DTT, 3 mM MgCl2, 50 mM NaCl, on ice 15 min; 0.1 ug RNA, 2% Tris-acetate agarose gel.
Data set [4] concerns NOD-RK1 (Arabidopsis thaliana). Put plainly: EMSA. The note with it: apparent; EMSA: 20 mM Tris-HCl pH 7.5, 1 mM DTT, 3 mM MgCl2, 50 mM NaCl, on ice 15 min; 0.1 ug RNA, 2% Tris-acetate agarose gel.
Data set [5] relates to IDD-118-212 (Arabidopsis thaliana). Put plainly: EMSA. The settings on record: apparent; EMSA: 20 mM Tris-HCl pH 7.5, 1 mM DTT, 3 mM MgCl2, 50 mM NaCl, on ice 15 min; 0.1 ug RNA, 2% Tris-acetate agarose gel.
Data set [6] relates to Co-86-608 (Arabidopsis thaliana). The experiment in a line: EMSA. The note with it: apparent; RNA taken as U1 snRNA; EMSA: 20 mM Tris-HCl pH 7.5, 1 mM DTT, 3 mM MgCl2, 50 mM NaCl, on ice 15 min; 0.1 ug RNA, 2% Tris-acetate agarose gel.
Data set [7] concerns IDD-212-350-NLS2 (Arabidopsis thaliana). Put plainly: EMSA. The note with it: apparent; EMSA: 20 mM Tris-HCl pH 7.5, 1 mM DTT, 3 mM MgCl2, 50 mM NaCl, on ice 15 min; 0.1 ug RNA, 2% Tris-acetate agarose gel.
Data set [8] concerns the molecule itself. Put plainly: dynamic light scattering; protein at 0.05 mg/ml in 1 mM phosphate buffer pH 7.5, Zetasizer Nano ZS; free protein, and with U1 snRNA at a protein:RNA molar ratio of 5:1.

On to U1 snRNA, for which the Kd in data set [1] was 760 nM; in data set [2] it was 60 nM; in data set [3], 40 nM; in data set [4], 2250 nM; in data set [5], 1420 nM; in data set [6] it was 40 nM. In data set [7], the Kd came to 480 nM.

B1: Arabidopsis thaliana coilin (Atcoilin), wild type (natural protein, UniProt Q8RWK8 1-608, looked up)
chain: MEEEKVRVRLVFEDRRILSKYQKKQGLTRSWVVLNRKCHRTISEFSDHIFHTFSLCEACPHGLSLSMEGFVLPPFESSCVLKDKDIVCVKKKKESLLEIVGEDSDENVYNAIEVEERPQIRPGEMLLANEEFQKETGGYESESEEDELEEEAEEFVPEKKASKKRKTSSKNQSTKRKKCKLDTTEESPDERENTAVVSNVVKKKKKKKSLDVQSANNDEQNNDSTKPMTKSKRSSQQEESKEHNDLCQLSAETKKTPSRSARRKKAKRQWLREKTKLEKEELLQTQLVVAPSQKPVITIDHQATKEKHCETLENQQAEEVSDGFGDEVVPVEVRPGHIRFKPLAGTDEASLDSEPLVENVLWNGNMTKKKGQKWGTEKSGFSKRYAQDFNEDATTQPAEAETLANCPIDYEQLVAYTGSVKKGDVIAYRLIELTSSWTPEVSSFRVGKISYYDPDSKMVTLMPVQEFPIEKKTEEDDDFCMQPDTSLYKEDGSLEIEFSALLDVRSVKTSSSDSAEVAKSALPEPDQSAKKPKLSANKELQTPAKENGEVSPWEELSEALSAKKAALSQANNGWNKKGSSSGGSWSYKALRGSAMGPVMNYLRSQKEI
notes: coilin of Arabidopsis thaliana, a 608-amino acid protein (NM_101173.4; GI:42562030); Cloned into the PQE30 vector; forms oligomers larger than a decamer in solution by DLS; also called wt coilin; wt Atcoilin; source: E. coli JM109, purified under denaturing conditions (Ni-NTA agarose), renatured by dialysis
By stoichiometry N is commonly meant a count of units in the complex or per binding partner. Regarding B1, the “stoichiometry N” value in data set [8] is over 10.

B2: Atcoilin N-terminal ordered domain (NOD), residues 1-117 (domain or fragment, Arabidopsis thaliana, UniProt Q8RWK8 1-117, looked up)
chain: MEEEKVRVRLVFEDRRILSKYQKKQGLTRSWVVLNRKCHRTISEFSDHIFHTFSLCEACPHGLSLSMEGFVLPPFESSCVLKDKDIVCVKKKKESLLEIVGEDSDENVYNAIEVEER
notes: coilin of Arabidopsis thaliana (NM_101173.4; GI:42562030), NOD, 1-117 aa residues; also called N-terminal domain; source: E. coli JM109, purified under denaturing conditions (Ni-NTA agarose), renatured by dialysis
For the molecule B2, the binding result in data set [8] is “binds”.
